Laboratory results taken from patent publication CN115850477A (SUZHOU SHALI BIOTECHNOLOGY CO LTD, dated 2023).

Legend:
[1] = target: Human 4-1BB/TNFRSF9 Protein, His Tag (ACRO Biosystems) (human) (UniProt Q07011); experiment: ELISA, coated 4-1BB-his, scFv clone supernatant
[2] = target: T1, Human 4-1BB/TNFRSF9 Protein, His Tag (ACRO Biosystems) (human, UniProt Q07011 24-186); experiment: ELISA, coated Human 4-1BB His Tag 1 ug/ml, antibody from 10 ug/ml in two-fold dilutions
T1 construct: Bought from ACRO Biosystems; also called 4-1BB-his; not shown: His tag
T1 sequence (Q07011 24-186 limits assumed): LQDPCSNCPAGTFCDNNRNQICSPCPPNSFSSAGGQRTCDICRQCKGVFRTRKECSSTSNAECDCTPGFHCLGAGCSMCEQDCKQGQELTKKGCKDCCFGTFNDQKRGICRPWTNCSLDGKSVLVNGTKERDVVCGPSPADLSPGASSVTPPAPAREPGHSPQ

B1: GT1C8 (scFv克隆, 初筛离心上清) (scFv, V domains shown)
VH: QMQLQESGPSLVKPSQTLSLTCSVTGDSITSGYWTWIRKFPGNRLEYMGFKSYSGSTYYNPSLKSRISITRDTSKNQYYLQLNSVTTEDTATYYCARSLLWLGAMDYWGQGTSVTVSS
VL: DIVMTQSHKFMSTSVGDRVSITCKASQDVGTAVAWYQQKPGQSPKLLIYWASTRHTGVPDRFTGSGSGTDFTLTISNVQSEDLADYFCQQYSSYPYTFGGGTKLEMKR
Q: Which OD450 [1] does the source give for B1 here?
A: Its OD450 is 1.12.

B2: GT1C8 huIgG1型抗体 (antibody, V domains shown)
VH: QMQLQESGPSLVKPSQTLSLTCSVTGDSITSGYWTWIRKFPGNRLEYMGFKSYSGSTYYNPSLKSRISITRDTSKNQYYLQLNSVTTEDTATYYCARSLLWLGAMDYWGQGTSVTVSS
VL: DIVMTQSHKFMSTSVGDRVSITCKASQDVGTAVAWYQQKPGQSPKLLIYWASTRHTGVPDRFTGSGSGTDFTLTISNVQSEDLADYFCQQYSSYPYTFGGGTKLEMKR
notes: GT1C8 is the only antibody described, but the name GT1C8 is never tied to these numbers in words; also called GT1C8的huIgG1抗体; GT1C8克隆hIgG1形式抗体
Q: With B2 as the binder, how does the EC50 [2] read?
A: Its EC50 is 0.102 µg/mL.
